Read-outs that look alike come from different tables or passages of the source.

This passage reports Kd results from article PMC2188490.

Common to all, as to experiment: kinetic titration of prothrombinase activity
Experiment [1] has as its target factor V/Va (mixture of nonactivated and activated factor V) purified from rabbit plasma (rabbit).
Experiment [2] shares this target. This is another data set of the same source.
Experiment [3] addresses high-affinity factor Xa receptor on cultured rabbit alveolar macrophages (rabbit (endogenous in alveolar macrophages)).

For factor Xa (enzyme), the Kd (in general, the free concentration of one partner at which half of the binding sites on the other are occupied at equilibrium, for simple one-to-one binding) in experiment [1] was 0.821 nM; in experiment [2], 0.603 nM; in experiment [3], 0.211 nM.
